Reference: paper PMC5470873

Biological target: T1, mouse TMEM16A(ac) isoform (mouse), Q8BHY3
T1 chain: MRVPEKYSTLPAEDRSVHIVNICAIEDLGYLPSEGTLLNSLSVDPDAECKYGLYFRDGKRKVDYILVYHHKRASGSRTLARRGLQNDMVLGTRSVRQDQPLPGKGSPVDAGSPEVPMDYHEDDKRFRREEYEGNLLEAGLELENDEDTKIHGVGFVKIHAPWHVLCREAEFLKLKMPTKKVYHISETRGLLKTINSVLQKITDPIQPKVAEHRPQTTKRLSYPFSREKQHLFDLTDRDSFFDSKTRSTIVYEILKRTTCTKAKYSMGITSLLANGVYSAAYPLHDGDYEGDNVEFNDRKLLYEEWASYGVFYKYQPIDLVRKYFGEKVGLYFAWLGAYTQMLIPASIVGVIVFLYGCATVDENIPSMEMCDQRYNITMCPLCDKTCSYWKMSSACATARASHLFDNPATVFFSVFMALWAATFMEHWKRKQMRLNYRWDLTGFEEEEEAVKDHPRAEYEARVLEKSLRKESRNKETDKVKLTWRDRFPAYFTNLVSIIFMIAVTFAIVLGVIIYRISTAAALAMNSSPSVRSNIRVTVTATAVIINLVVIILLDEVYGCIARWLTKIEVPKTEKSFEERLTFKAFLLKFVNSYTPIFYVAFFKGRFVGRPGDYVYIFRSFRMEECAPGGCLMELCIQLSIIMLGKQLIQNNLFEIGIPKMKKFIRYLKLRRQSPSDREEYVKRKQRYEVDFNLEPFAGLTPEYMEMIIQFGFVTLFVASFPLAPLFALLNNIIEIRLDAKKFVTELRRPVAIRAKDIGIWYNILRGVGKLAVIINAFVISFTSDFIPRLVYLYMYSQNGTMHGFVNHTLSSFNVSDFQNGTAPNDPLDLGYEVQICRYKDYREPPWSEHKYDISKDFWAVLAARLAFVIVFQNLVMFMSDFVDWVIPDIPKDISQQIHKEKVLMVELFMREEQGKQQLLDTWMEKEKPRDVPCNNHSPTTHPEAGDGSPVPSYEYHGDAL
Assay: cryo-EM structure; purified mTMEM16A at 3 mg/ml in 0.12% digitonin, 20 mM HEPES pH 7.5, 150 mM NaCl, 0.5 mM CaCl2; single particle reconstruction with C2 symmetry imposed, 6.6 Å; poly-alanine model
Conditions: remark: other sources report otherwise

B1: mouse TMEM16A(ac) isoform, Q8BHY3 1-960 (natural protein)
chain: MRVPEKYSTLPAEDRSVHIVNICAIEDLGYLPSEGTLLNSLSVDPDAECKYGLYFRDGKRKVDYILVYHHKRASGSRTLARRGLQNDMVLGTRSVRQDQPLPGKGSPVDAGSPEVPMDYHEDDKRFRREEYEGNLLEAGLELENDEDTKIHGVGFVKIHAPWHVLCREAEFLKLKMPTKKVYHISETRGLLKTINSVLQKITDPIQPKVAEHRPQTTKRLSYPFSREKQHLFDLTDRDSFFDSKTRSTIVYEILKRTTCTKAKYSMGITSLLANGVYSAAYPLHDGDYEGDNVEFNDRKLLYEEWASYGVFYKYQPIDLVRKYFGEKVGLYFAWLGAYTQMLIPASIVGVIVFLYGCATVDENIPSMEMCDQRYNITMCPLCDKTCSYWKMSSACATARASHLFDNPATVFFSVFMALWAATFMEHWKRKQMRLNYRWDLTGFEEEEEAVKDHPRAEYEARVLEKSLRKESRNKETDKVKLTWRDRFPAYFTNLVSIIFMIAVTFAIVLGVIIYRISTAAALAMNSSPSVRSNIRVTVTATAVIINLVVIILLDEVYGCIARWLTKIEVPKTEKSFEERLTFKAFLLKFVNSYTPIFYVAFFKGRFVGRPGDYVYIFRSFRMEECAPGGCLMELCIQLSIIMLGKQLIQNNLFEIGIPKMKKFIRYLKLRRQSPSDREEYVKRKQRYEVDFNLEPFAGLTPEYMEMIIQFGFVTLFVASFPLAPLFALLNNIIEIRLDAKKFVTELRRPVAIRAKDIGIWYNILRGVGKLAVIINAFVISFTSDFIPRLVYLYMYSQNGTMHGFVNHTLSSFNVSDFQNGTAPNDPLDLGYEVQICRYKDYREPPWSEHKYDISKDFWAVLAARLAFVIVFQNLVMFMSDFVDWVIPDIPKDISQQIHKEKVLMVELFMREEQGKQQLLDTWMEKEKPRDVPCNNHSPTTHPEAGDGSPVPSYEYHGDAL
stoichiometry N: 2
